We go through four molecules from patent US20180133314A1 (Daiichi Sankyo, published 2018).

For test [1], the target named is T1, human FGFR3 IIIc variant protein (human, UniProt P22607 23-806). Kind of test: immunostaining of formalin-fixed, paraffin-embedded transfected 293alpha cell blocks (denatured), proteinase K retrieval.
Test [2] has as its target T2, human FGFR1 IIIc variant protein (human, UniProt P11362 22-822). The test is described as above.
For test [3], the target named is T3, human FGFR2 IIIb variant protein (human, UniProt P21802-3 22-822).
T3 construct: whole, on cells; also called hFGFR2 IIIb
T3 sequence (P21802 other isoform, or with tags, fused parts or gaps mutant limits assumed): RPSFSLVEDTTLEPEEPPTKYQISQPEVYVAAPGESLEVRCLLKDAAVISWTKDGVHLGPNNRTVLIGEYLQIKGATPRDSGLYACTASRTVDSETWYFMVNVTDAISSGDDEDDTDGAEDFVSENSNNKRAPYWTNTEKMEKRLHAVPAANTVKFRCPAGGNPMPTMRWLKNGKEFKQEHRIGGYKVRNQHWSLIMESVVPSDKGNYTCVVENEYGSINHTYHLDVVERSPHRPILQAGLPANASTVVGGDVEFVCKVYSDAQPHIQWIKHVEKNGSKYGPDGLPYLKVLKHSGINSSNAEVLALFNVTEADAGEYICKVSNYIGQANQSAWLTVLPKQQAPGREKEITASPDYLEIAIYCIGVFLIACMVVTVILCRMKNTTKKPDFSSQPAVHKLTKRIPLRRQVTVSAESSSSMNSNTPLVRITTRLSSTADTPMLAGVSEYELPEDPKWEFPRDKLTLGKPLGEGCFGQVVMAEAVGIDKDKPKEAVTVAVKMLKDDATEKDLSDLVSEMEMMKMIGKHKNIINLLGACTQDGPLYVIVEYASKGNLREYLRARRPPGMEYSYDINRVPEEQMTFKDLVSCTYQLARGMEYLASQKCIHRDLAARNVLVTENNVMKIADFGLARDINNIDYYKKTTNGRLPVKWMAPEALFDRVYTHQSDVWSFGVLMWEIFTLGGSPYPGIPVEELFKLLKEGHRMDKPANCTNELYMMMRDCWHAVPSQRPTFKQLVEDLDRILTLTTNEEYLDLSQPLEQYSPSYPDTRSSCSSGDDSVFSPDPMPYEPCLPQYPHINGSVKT
The description is as above.

Test [4] deals with T4, human FGFR2 IIIc variant protein (human, UniProt P21802 22-821).
T4 construct: also called hFGFR2 IIIc
T4 sequence (P21802 22-821 limits assumed, change not shown): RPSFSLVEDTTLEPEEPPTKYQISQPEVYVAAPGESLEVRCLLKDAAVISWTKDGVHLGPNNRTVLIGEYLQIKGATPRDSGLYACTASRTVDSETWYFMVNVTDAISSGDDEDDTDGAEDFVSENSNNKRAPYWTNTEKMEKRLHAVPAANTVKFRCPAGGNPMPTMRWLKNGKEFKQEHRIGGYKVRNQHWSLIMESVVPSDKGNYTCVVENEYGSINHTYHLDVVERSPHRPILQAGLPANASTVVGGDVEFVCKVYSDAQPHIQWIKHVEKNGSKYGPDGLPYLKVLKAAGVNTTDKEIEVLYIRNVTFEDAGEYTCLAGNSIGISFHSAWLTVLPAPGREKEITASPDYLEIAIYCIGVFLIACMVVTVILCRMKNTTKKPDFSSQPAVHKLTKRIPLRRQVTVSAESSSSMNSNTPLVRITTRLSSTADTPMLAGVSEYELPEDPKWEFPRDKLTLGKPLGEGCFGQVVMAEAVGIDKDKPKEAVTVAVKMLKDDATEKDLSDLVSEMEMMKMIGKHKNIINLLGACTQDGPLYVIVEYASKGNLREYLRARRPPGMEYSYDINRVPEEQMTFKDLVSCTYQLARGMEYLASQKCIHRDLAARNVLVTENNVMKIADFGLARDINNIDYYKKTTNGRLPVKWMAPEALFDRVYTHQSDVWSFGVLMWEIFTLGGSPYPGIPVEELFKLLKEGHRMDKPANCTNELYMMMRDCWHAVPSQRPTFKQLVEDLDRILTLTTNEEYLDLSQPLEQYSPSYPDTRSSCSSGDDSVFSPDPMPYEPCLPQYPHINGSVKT
Description: flow cytometry, hybridoma culture supernatant on transfected HEK293T cells. How it is done: HEK293T cells were inoculated at a density of 5×10⁴ cells/cm² to a 225-cm² flask (manufactured by Sumitomo Bakelite Co., Ltd.) and cultured overnight at 37° C. under 5% CO₂ conditions in a DMEM medium containing 10% FBS. On the next day, the pcDNA-DEST40-FGFR2 IIIc, the pcDNA-DEST40-FGFR2 IIIb or a control pcDNA-DEST40 was transfected to the HEK293T cells using Lipofectamine 2000, and the cells were further cultured overnight at 37° C. under 5% CO₂ conditions. On the next day, the expression vector-transfected HEK293T cells were treated with TrypLE Express (manufactured by Life Technologies Corp.), washed with DMEM containing 10% FBS, and then suspended in PBS containing 5% FBS. The obtained cell suspension was used in flow cytometry analysis.
The pcDNA-DEST40-FGFR2 IIIc and pcDNA-DEST40-FGFR2 IIIb binding specificity of the antibody produced by each hybridoma determined to be positive by Cell-ELISA in Example 1)-4 was further confirmed by flow cytometry. Each HEK293T cell suspension prepared in Example 1)-5-1 was centrifuged to remove a supernatant. […] The data was analyzed using Flowjo (manufactured by Tree Star Inc.). After removal of 7-aminoactinomycin D-positive dead cells by gating, the FITC fluorescence intensity of live cells was plotted to a histogram.
For orientation: Flow cytometry measures light scatter and fluorescence of single cells or particles in a stream.

Test [5] addresses T4, human FGFR2 IIIc variant protein. Description: immunostaining of formalin-fixed, paraffin-embedded transfected 293alpha cell blocks (denatured), 15 µg/mL. How it is done:
The cells were transfected with the FGFR1 IIIb, FGFR1 IIIc, FGFR2 IIIb, FGFR2 IIIc, FGFR3 IIIb, FGFR3 IIIc, or FGFR4 expression vector constructed in Examples 1)-3-1, 1)-3-2, and 1)-3-3 or an empty vector, i.e., pcDNA-DEST40-FGFR1 IIIb, pcDNA-DEST40-FGFR1 IIIc, pcDNA-DEST40-FGFR2 IIIb, pcDNA-DEST40-FGFR2 IIIc, pcDNA-DEST40-FGFR3 IIIb, pcDNA-DEST40-FGFR3 IIIc, pcDNA-DEST40-FGFR4, or pcDNA-DEST40 using FuGENE 6 (manufactured by Roche Diagnostics K.K.) and cultured for two nights at 37° C. under 5% CO₂ conditions. The obtained cells were recovered using TrypLE Express (manufactured by Life Technologies Corp.) and centrifuged to obtain a pellet, which was then washed once with PBS and centrifuged. The resulting pellet was fixed in 20% neutral buffered formalin.
Each sample was stained using an automatic staining apparatus (LEICA BOND-III; manufactured by Leica Biosystems Nussloch GmbH). For deparaffinization, the sample was heated to 72° C., then Bond Dewax Solution (manufactured by Leica Biosystems Nussloch GmbH) was added thereto, and the sample was incubated for 30 seconds, followed by addition of ethanol and washing 4 times with Bond Wash Solution (manufactured by Leica Biosystems Nussloch GmbH). Enzyme Proteinase K (IHC) (manufactured by Leica Biosystems Nussloch GmbH) diluted 200-fold was added thereto, and the sample was incubated at 37° C. for 5 minutes. […]

Test [6] has as its target T3, human FGFR2 IIIb variant protein. Description: flow cytometry on transfected HEK293T cells (non-denatured). An excerpt:
(§1) The binding specificity of the mouse chimeric FR2-2nd_#028 and the mouse chimeric FR2-2nd_#023 prepared in Example 3)-7 for non-denatured molecules of the FGFR family was confirmed by flow cytometry. Each HEK293T cell suspension prepared in Example 3)-8-1 was centrifuged to remove a supernatant. Then, the pcDNA-DEST40-FGFR1 IIIb-, pcDNA-DEST40-FGFR1 IIIc-, pcDNA-DEST40-FGFR2 IIIb-, pcDNA-DEST40-FGFR2 IIIc-, pcDNA-DEST40-FGFR3 IIIb-, pcDNA-DEST40-FGFR3 IIIc-, pcDNA-DEST40-FGFR4-, or pcDNA-DEST40-transfected HEK293T cells were suspended by the addition of a negative control mouse IgG1 (manufactured by R&D Systems, Inc.) or the mouse chimeric FR2-2nd_#028 or the mouse chimeric FR2-2nd_#023 adjusted to 5 μg/ml, and left standing at 4° C. for 1 hour. The cells were washed once with PBS containing 5% FBS, then suspended by the addition of Fluorescein-Conjugated Goat IgG Fraction to Mouse IgG (manufactured by MP Biomedicals, Inc.) diluted 500-fold with PBS containing 5% FBS, and left standing at 4° C. for 1 hour. […] The data was analyzed using Flowjo (manufactured by Tree Star Inc.). After removal of 7-aminoactinomycin D-positive dead cells by gating, the average fluorescence intensity (MFI) of the FITC of live cells was calculated (FIG. 1).

For test [7] the target is unchanged. Description: immunostaining of formalin-fixed, paraffin-embedded blocks of 293alpha cells forced to express FGFR2 IIIb; antibody at 15 ug/mL, heat retrieval.
The target of test [8] is T4, human FGFR2 IIIc variant protein. Description: immunostaining of formalin-fixed, paraffin-embedded blocks of 293alpha cells forced to express FGFR2 IIIc; antibody at 15 ug/mL, heat retrieval.
For test [9], the target named is T1, human FGFR3 IIIc variant protein. Description: immunostaining of formalin-fixed, paraffin-embedded transfected 293alpha cell blocks (denatured), heat retrieval.
The target of test [10] is T2, human FGFR1 IIIc variant protein. The test is described as above.
The target in test [11] is T4, human FGFR2 IIIc variant protein. Description: immunostaining of formalin-fixed, paraffin-embedded blocks of 293alpha cells forced to express FGFR2 IIIc; antibody at 15 ug/mL, heat retrieval. This is another data set of the same source.
For test [12], the target named is T1, human FGFR3 IIIc variant protein. Kind of test: flow cytometry on transfected HEK293T cells (non-denatured).
Description: as §1

The target in test [13] is T3, human FGFR2 IIIb variant protein. Kind of test: immunostaining of formalin-fixed, paraffin-embedded blocks of 293alpha cells forced to express FGFR2 IIIb; antibody at 15 ug/mL, heat retrieval. This is another data set of the same source.

T2 sequence (P11362 22-822 limits assumed, change not shown): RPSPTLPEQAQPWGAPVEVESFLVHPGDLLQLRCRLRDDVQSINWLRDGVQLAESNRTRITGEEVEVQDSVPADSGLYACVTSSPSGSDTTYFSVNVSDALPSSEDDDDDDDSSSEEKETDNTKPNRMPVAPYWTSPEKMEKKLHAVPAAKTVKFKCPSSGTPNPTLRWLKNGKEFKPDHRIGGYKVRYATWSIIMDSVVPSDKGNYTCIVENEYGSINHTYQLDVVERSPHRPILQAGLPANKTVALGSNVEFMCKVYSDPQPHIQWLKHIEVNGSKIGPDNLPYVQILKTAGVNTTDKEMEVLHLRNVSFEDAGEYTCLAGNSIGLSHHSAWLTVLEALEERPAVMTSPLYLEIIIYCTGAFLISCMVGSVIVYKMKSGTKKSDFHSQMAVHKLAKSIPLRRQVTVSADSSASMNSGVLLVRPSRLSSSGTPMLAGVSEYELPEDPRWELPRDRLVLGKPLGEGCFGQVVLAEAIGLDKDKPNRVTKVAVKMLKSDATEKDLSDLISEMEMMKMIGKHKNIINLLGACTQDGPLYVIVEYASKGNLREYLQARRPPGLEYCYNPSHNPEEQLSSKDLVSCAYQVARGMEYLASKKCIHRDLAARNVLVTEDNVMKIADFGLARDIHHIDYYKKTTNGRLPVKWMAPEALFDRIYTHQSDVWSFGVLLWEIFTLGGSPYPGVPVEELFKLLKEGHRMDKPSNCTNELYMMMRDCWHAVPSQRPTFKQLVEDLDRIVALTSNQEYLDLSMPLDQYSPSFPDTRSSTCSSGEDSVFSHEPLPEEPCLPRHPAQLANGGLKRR
T1 sequence (P22607 23-806 limits assumed, change not shown): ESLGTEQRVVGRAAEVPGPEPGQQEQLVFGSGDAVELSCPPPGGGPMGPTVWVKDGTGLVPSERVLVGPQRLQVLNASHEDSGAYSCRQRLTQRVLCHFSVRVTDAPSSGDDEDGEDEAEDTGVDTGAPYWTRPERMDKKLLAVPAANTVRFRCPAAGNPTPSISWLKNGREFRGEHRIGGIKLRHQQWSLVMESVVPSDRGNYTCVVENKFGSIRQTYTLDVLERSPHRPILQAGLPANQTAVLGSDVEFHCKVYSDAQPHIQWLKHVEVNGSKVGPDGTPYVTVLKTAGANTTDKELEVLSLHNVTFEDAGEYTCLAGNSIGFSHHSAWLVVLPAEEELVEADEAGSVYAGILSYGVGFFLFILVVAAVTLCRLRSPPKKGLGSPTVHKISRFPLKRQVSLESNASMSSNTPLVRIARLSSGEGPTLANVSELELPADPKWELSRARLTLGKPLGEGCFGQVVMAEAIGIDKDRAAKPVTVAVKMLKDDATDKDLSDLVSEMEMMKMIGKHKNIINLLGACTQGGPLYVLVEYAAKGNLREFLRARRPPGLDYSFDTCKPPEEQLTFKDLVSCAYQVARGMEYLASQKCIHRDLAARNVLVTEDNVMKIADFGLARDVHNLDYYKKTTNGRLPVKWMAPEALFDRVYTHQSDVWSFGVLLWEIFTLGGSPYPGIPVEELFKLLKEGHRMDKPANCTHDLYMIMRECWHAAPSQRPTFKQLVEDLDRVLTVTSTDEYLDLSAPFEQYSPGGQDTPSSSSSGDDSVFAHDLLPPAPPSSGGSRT

B1: rat anti-FGFR2 antibody FR2-2nd_#028 (antibody, V domains shown)
VH: EVQLVESGGGLVQPGRSLKLSCAASGFTFSDYGMAWVRQAPTKGLEWVATISYDGSSTYYRDSVKGRFTISRENAKSTLSLQMDSLRSEDTATYYCTRHPTYYYIMDAWGQGASVTVSS
VL: DTVLTQSPALAVSLGQRVTISCRASKSVSTFMNWYQQKSGQQPKLLIYRASNLESGVPSRFSGSGSGTDFTLTIDPVEADDIANYYCQQSNELPLTFGSGTKLEIKR
notes: Rat monoclonal from hybridoma; also called rat FR2-2nd_#028; rat antibody FR2-2nd_#028
Regarding B1, the binding result in test [1] was “no binding (tested: 15 µg/mL)”; in [2], “no binding (tested: 15 µg/mL)”; in test [3] it was “no binding (tested: 15 µg/mL)”; in [4], “binds”.

B2: mouse chimeric anti-FGFR2 antibody FR2-2nd_#028 (antibody, mouse IgG1, kappa, V domains shown)
VH: B1 VH
VL: B1 VL
notes: The full-chain entries may include a secretory signal; also called mouse chimeric FR2-2nd_#028; mouse IgG1 chimeric FR2-2nd_#028
B2: the binding result in test [5] is listed as “binds”; in test [6], “no binding (tested: 5 µg/ml)”; in test [1], “no binding (tested: 15 µg/mL)”; in test [2], “no binding (tested: 15 µg/mL)”.

B3: rat anti-FGFR2 antibody FR2-2nd_#023 (antibody, V domains shown)
VH: EVQLVESGGGLVQPGRSMKLSCAASGLTFSNYGMAWVRQAPKKGLEWVAFISHDGGSSYYRDSVEGRFIISRDNAKSTLSLQMDSLRSEDTATYYCTTAGDYYSDNDWYFDFWGPGIMVTVSS
VL: DIQMTQSPSLLSASVGDRVTLSCKASQSIYNSLAWYQQKLGEAPKLLIYDADSLQTGIPSRFSGSGSGTDYTLTISSLQPEDVATYFCQKYYSGWTFGGGTKLELKR
notes: Rat monoclonal from hybridoma; also called rat FR2-2nd_#023; rat antibody FR2-2nd_#023
Consider B3, for which the binding result is “binds” in test [7], “binds” in test [8], “no binding (tested: 15 µg/mL)” in test [9] and “no binding (tested: 15 µg/mL)” in [10].

B4: mouse chimeric anti-FGFR2 antibody FR2-2nd_#023 (antibody, mouse IgG1, kappa, V domains shown)
VH: B3 VH
VL: B3 VL
notes: The full-chain entries may include a secretory signal; also called mouse chimeric FR2-2nd_#023; mouse IgG1 chimeric FR2-2nd_#023
B4: the binding result in [11] is “binds”; in test [12], “no binding (tested: 5 µg/ml)”; in test [13], “binds”; in [10], “no binding (tested: 15 µg/mL)”.
